This note sets out measurements from PMC13056530.

In this test the target is RorSlfn5, Schlafen nuclease fused to an Ig-like domain, from Raoultella ornithinolytica (Raoultella ornithinolytica). Kind of test: SEC-MALS. (In gel filtration, larger molecules generally elute earlier.)

A word on the stoichiometry N: it is a count of units in the complex or per binding partner. As for “RorSlfn5, Schlafen nuclease fused to an Ig-like domain, from Raoultella ornithinolytica (enzyme)”, the stoichiometry N stood at 6.
